Source: US20050064507

Assays:
[1] = tested on: T1, AF15q14 peptide GFLNEPLSSKSQRRKSLKLK (SEQ ID NO:132)
T1 sequence: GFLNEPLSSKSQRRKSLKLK

[2] = tested on: T2, DGKZ peptide KKKKRASFKRKSSKKG (SEQ ID NO:77)
T2 sequence: KKKKRASFKRKSSKKG

[3] = tested on: T3, ERN1 peptide ISDFGLAKKLAVGRHSFSRR (SEQ ID NO:145)
T3 sequence: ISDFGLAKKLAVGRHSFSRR

[4] = tested on: T4, ERN1 peptide KLAVGRHSFSRRSGV (SEQ ID NO:94)
T4 sequence: KLAVGRHSFSRRSGV

[5] = tested on: T5, HERG peptide TELEGGFSRQRKRKLSFRRR (SEQ ID NO:140)
T5 sequence: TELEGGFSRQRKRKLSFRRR

[6] = tested on: T6, KCNH2 peptide RQRKRKLSFRRRTDKD (SEQ ID NO:86)
T6 sequence: RQRKRKLSFRRRTDKD

[7] = tested on: T7, MARCKS peptide KKRFSFKKSFKLSGFSFKKN (SEQ ID NO:123)
T7 sequence: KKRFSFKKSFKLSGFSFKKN

[8] = tested on: T8, MacMARCKS peptide KKKFSFKKPFKLSGLSFKRN (SEQ ID NO:162)
T8 sequence: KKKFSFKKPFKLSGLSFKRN

[9] = tested on: T9, NF1 peptide AGSFKRNSIKKIV (SEQ ID NO:102)
T9 sequence: AGSFKRNSIKKIV

[10] = tested on: T10, NIK peptide TEGKMARVAWKGKRRSKARK (SEQ ID NO:164)
T10 sequence: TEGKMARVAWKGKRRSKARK

[11] = tested on: T11, PARIS1 peptide EYLERRASRRRAV (SEQ ID NO:130)
T11 sequence: EYLERRASRRRAV

[12] = tested on: T12, PLEK peptide KFARKSTRRSIRLPE (SEQ ID NO:78)
T12 sequence: KFARKSTRRSIRLPE

[13] = tested on: T13, PSCD2 peptide AARKKRISVKKKQEQ (SEQ ID NO:93)
T13 sequence: AARKKRISVKKKQEQ

[14] = tested on: T14, PSCDBP peptide LSSMFGTLPRKSRKGSVRKQ (SEQ ID NO:144)
T14 sequence: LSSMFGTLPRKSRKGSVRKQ

[15] = tested on: T15, cyclophilin G peptide TEEKSKKRKKKHRKNSRKHK (SEQ ID NO:165)
T15 sequence: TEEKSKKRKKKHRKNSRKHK

[16] = tested on: T16, dag kinase iota peptide PQNSLKASNRKKKRTSFKRK (SEQ ID NO:151)
T16 sequence: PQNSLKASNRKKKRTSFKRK

[17] = tested on: T17, dag kinase zeta peptide RPQNTLKASKKKKRASFKRK (SEQ ID NO:118)
T17 sequence: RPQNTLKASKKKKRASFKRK

[18] = tested on: T18, peptide AINSRETMFHKERFK (SEQ ID NO:67)
T18 sequence: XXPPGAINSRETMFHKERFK

[19] = tested on: T19, peptide EARLGAASLKFGARD (SEQ ID NO:56)
T19 sequence: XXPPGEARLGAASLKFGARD

[20] = tested on: T20, peptide GLLDRKGSWKKLDDM (SEQ ID NO:35)
T20 sequence: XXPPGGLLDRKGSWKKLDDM

[21] = tested on: T21, peptide HERKGSDKRGDNQ (SEQ ID NO:70)
T21 sequence: XXPPGHERKGSDKRGDNQ

[22] = tested on: T22, peptide KKKFRTPSFLKKSKK (SEQ ID NO:11)
T22 sequence: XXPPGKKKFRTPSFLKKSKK

[23] = tested on: T23, peptide KNVVKLLSSRRTQDR (SEQ ID NO:57)
T23 sequence: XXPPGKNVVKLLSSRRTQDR

[24] = tested on: T24, peptide LALTARESSVRSGGAG (SEQ ID NO:69)
T24 sequence: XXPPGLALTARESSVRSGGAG

[25] = tested on: T25, peptide LLGSGKVTDRKAL (SEQ ID NO:39)
T25 sequence: XXPPGLLGSGKVTDRKAL

[26] = tested on: T26, peptide LTDPKEDPIYDEPEGLAPVPG (SEQ ID NO:72)
T26 sequence: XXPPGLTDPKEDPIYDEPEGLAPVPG

[27] = tested on: T27, peptide PVNKRSKYTMMK (SEQ ID NO:59)
T27 sequence: XXPPGPVNKRSKYTMMK

[28] = tested on: T28, peptide QKKSRLRRRASQLKI (SEQ ID NO:9)
T28 sequence: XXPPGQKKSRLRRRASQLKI

[29] = tested on: T29, peptide RGFLRSASLGRRASFHLE (SEQ ID NO:15)
T29 sequence: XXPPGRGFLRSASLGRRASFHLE

[30] = tested on: T30, peptide RKIPKRPGSVHRTPSRQ (SEQ ID NO:7)
T30 sequence: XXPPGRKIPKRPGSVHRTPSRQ

[31] = tested on: T31, peptide VQQLLRSSNRRLEQL (SEQ ID NO:49)
T31 sequence: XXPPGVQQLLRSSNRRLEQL

[32] = tested on: T32, phospholemman peptide EEGTFRSSIRRLSTRRR (SEQ ID NO:116)
T32 sequence: EEGTFRSSIRRLSTRRR

[33] = tested on: T33, pkc-zeta peptide GLPAPGEDKSIYRRGSRRWR (SEQ ID NO:167)
T33 sequence: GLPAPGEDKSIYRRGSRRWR

[34] = tested on: T34, pleckstrin 1 peptide KAIKAIEGGQKFARKSTRRS (SEQ ID NO:126)
T34 sequence: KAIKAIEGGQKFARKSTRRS

[35] = tested on: T35, plectin peptide PLKEKKRERKTSSKSSVRKR (SEQ ID NO:125)
T35 sequence: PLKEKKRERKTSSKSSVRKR

[36] = tested on: T36, splicing factor, arginine/serine-rich 4 peptide RSRSRSRSKSKDKRKSRKRS (SEQ ID NO:134)
T36 sequence: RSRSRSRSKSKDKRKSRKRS

[37] = tested on: T37, titin peptide PFEVVWYKDKRQLRSSKKYK (SEQ ID NO:160)
T37 sequence: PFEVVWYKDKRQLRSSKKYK

[38] = tested on: T38, ubiquitin specific protease 8 peptide RARRDSLKKIEIW (SEQ ID NO:136)
T38 sequence: RARRDSLKKIEIW

Substance: PKC-delta
- in vitro phosphorylation, 1 uM peptide (% of best substrate) [1]: 41
- in vitro phosphorylation, 10 uM peptide (% of best substrate) [1]: 47
- in vitro phosphorylation (% of best substrate) [2]: 76
- in vitro phosphorylation, 1 uM peptide (% of best substrate) [3]: 34
- in vitro phosphorylation, 10 uM peptide (% of best substrate) [3]: 23
- in vitro phosphorylation (% of best substrate) [4]: 12
- in vitro phosphorylation, 1 uM peptide (% of best substrate) [5]: 44
- in vitro phosphorylation, 10 uM peptide (% of best substrate) [5]: 49
- in vitro phosphorylation (% of best substrate) [6]: 42
- in vitro phosphorylation, 1 uM peptide (% of best substrate) [7]: 45
- in vitro phosphorylation, 10 uM peptide (% of best substrate) [7]: 22
- in vitro phosphorylation, 1 uM peptide (% of best substrate) [8]: 21
- in vitro phosphorylation, 10 uM peptide (% of best substrate) [8]: 13
- in vitro phosphorylation (% of best substrate) [9]: 14
- in vitro phosphorylation, 1 uM peptide (% of best substrate) [10]: 18
- in vitro phosphorylation, 10 uM peptide (% of best substrate) [10]: 26
- in vitro phosphorylation, 1 uM peptide (% of best substrate) [11]: 46
- in vitro phosphorylation, 10 uM peptide (% of best substrate) [11]: 20
- in vitro phosphorylation (% of best substrate) [12]: 52
- in vitro phosphorylation (% of best substrate) [13]: 35
- in vitro phosphorylation, 1 uM peptide (% of best substrate) [14]: 35
- in vitro phosphorylation, 10 uM peptide (% of best substrate) [14]: 28
- in vitro phosphorylation, 1 uM peptide (% of best substrate) [15]: 25
- in vitro phosphorylation, 10 uM peptide (% of best substrate) [15]: 19
- in vitro phosphorylation, 1 uM peptide (% of best substrate) [16]: 27
- in vitro phosphorylation, 10 uM peptide (% of best substrate) [16]: 37
- in vitro phosphorylation, 1 uM peptide (% of best substrate) [17]: 73
- in vitro phosphorylation, 10 uM peptide (% of best substrate) [17]: 60
- in vitro phosphorylation (% of best substrate) [18]: 1
- in vitro phosphorylation (% of best substrate) [19]: 2
- in vitro phosphorylation (% of best substrate) [20]: 4
- in vitro phosphorylation (% of best substrate) [21]: 1
- in vitro phosphorylation (% of best substrate) [22]: 25
- in vitro phosphorylation (% of best substrate) [23]: 2
- in vitro phosphorylation (% of best substrate) [24]: 1
- in vitro phosphorylation (% of best substrate) [25]: 3
- in vitro phosphorylation (% of best substrate) [26]: 0
- in vitro phosphorylation (% of best substrate) [27]: 1
- in vitro phosphorylation (% of best substrate) [28]: 34
- in vitro phosphorylation (% of best substrate) [29]: 18
- in vitro phosphorylation (% of best substrate) [30]: 38
- in vitro phosphorylation (% of best substrate) [31]: 2
- in vitro phosphorylation, 1 uM peptide (% of best substrate) [32]: 75
- in vitro phosphorylation, 10 uM peptide (% of best substrate) [32]: 41
- in vitro phosphorylation, 1 uM peptide (% of best substrate) [33]: 13
- in vitro phosphorylation, 10 uM peptide (% of best substrate) [33]: 24
- in vitro phosphorylation, 1 uM peptide (% of best substrate) [34]: 47
- in vitro phosphorylation, 10 uM peptide (% of best substrate) [34]: 43
- in vitro phosphorylation, 1 uM peptide (% of best substrate) [35]: 46
- in vitro phosphorylation, 10 uM peptide (% of best substrate) [35]: 36
- in vitro phosphorylation, 1 uM peptide (% of best substrate) [36]: 44
- in vitro phosphorylation, 10 uM peptide (% of best substrate) [36]: 16
- in vitro phosphorylation, 1 uM peptide (% of best substrate) [37]: 25
- in vitro phosphorylation, 10 uM peptide (% of best substrate) [37]: 31
- in vitro phosphorylation, 1 uM peptide (% of best substrate) [38]: 41
- in vitro phosphorylation, 10 uM peptide (% of best substrate) [38]: 23
